Measured values as given in patent US20110190477A1 (G2 INFLAMMATION, published 2011).

Key:
human C5a receptor [1] = target: T1, human C5a receptor (human, UniProt P21730 1-350); assay: flow cytometry of bound hAb-Q (anti-hIgG-FITC) on human neutrophils, pre-chemotaxis samples
T1 construct: On human neutrophils, L1.2/hC5aR transfectants or neutrophils of hC5aR knock-in mice; also called hC5aR; C5aR1
T1 chain: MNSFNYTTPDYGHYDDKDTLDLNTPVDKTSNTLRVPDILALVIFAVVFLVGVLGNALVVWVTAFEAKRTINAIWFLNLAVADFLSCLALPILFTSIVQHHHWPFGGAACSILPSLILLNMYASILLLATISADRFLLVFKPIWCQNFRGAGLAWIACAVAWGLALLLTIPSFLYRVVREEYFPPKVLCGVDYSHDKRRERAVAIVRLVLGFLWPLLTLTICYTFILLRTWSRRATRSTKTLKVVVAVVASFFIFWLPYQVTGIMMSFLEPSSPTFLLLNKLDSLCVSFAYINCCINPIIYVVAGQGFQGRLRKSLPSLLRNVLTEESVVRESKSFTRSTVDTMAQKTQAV
Protocol: (§1) The FACSCalibur flow cytometer was set up with compensation parameters established for channel FL-1. Samples were acquired to exclude dead cells and debris. Neutrophils were identified based on FSC and SSC. The level of bound hAb-Q (anti-hIgG-FITC) or free C5aR (hAb-Q-FITC) was determined by determining the FITC (FL-1) mean fluorescence intensity (MFI) of the neutrophils in a sample.
(§2) Four experiments were carried out. Briefly, purified neutrophils isolated from the venous blood of a healthy volunteer were preincubated for 10 min with hAb-Q at concentrations ranging from 0.001 to 100 μg/ml. A small aliquot of this mix was taken to determine the amount of antibody bound receptor (% receptor occupancy) and the remainder was placed in the upper chamber of a transwell plate. C5a (10 nM) was placed in the lower chamber. After 30 min incubation, the number of cells that had migrated into the lower chamber was determined using FACS. The amount of bound antibody on the neutrophils in both the lower and upper chambers at the end of migration was also determined, using FITC-labelled anti-hIgG and flow cytometry. The level of free receptor (no bound antibody) was determined in one experiment by incubating the neutrophils with FITC-labelled hAb-Q before and after migration.

[2] = target: T2, peptide 23 (33 mer, full length of the 2nd extracellular loop of hC5aR) (human, N-terminal biotin); assay: peptide ELISA, biotin peptide on streptavidin plate
T2 construct: also called peptide no; 23
T2 peptide: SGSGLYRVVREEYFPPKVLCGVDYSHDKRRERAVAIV

human C5a receptor [3] = target: T1, human C5a receptor; assay: PK/PD model (NONMEM) fitted to serum concentration and receptor occupancy in hC5aR transgenic mice, toxicology study column
Text: (§3) NONMEM VI (non-linear mixed effects modelling software) with first order conditional estimation (FOCE) was used for modelling, and S-PLUS® 8.0 (Insigthful) was used for graphics and data handling. Evaluation of—and discrimination between—intermediate models was based on objective function values and standard graphical evaluation methods. In terms of objective function value, changes in this value were assumed to be chi-squared distributed (for nested models), and criteria for expanding the model were defined and used accordingly.
(§4) Toxicokinetics from the toxicology study in transgenic mice and PK/PD data from the pharmacology study was integrated to assess the relationship between pharmacokinetics and occupancy. […] This is consistent with other studies, observing higher clearance for high doses, due to saturation of the FcRN receptor (Hansen and Balthasar, 2002).

human C5a receptor [4] = target: T1, human C5a receptor; assay: PK/PD model (NONMEM) fitted to serum concentration and receptor occupancy in hC5aR transgenic mice, pharmacology study column
Text: as §3, §4

human C5a receptor [5] = target: T1, human C5a receptor; assay: flow cytometry of bound hAb-Q (anti-hIgG-FITC) on human neutrophils, post-chemotaxis lower chamber
Protocol: as §1, §2

human C5a receptor [6] = target: T1, human C5a receptor; assay: cell-based or functional assay

B1: humanized anti-C5aR antibody hAb-Q (antibody, human IgG4 S228P, kappa)
light: DVVMTQSPLSLPVTLGEPASISCRSSQSLVHSNGNTYLHWYLQKPGQSPQLLIYKVSNRFSGVPDRFSGSGSGTDFTLKISRVEAEDVGVYFCSQSTLVPLTFGQGTKLEIKRTVAAPSVFIFPPSDEQLKSGTASVVCLLNNFYPREAKVQWKVDNALQSGNSQESVTEQDSKDSTYSLSSTLTLSKADYEKHKVYACEVTHQGLSSPVTKSFNRGEC
heavy: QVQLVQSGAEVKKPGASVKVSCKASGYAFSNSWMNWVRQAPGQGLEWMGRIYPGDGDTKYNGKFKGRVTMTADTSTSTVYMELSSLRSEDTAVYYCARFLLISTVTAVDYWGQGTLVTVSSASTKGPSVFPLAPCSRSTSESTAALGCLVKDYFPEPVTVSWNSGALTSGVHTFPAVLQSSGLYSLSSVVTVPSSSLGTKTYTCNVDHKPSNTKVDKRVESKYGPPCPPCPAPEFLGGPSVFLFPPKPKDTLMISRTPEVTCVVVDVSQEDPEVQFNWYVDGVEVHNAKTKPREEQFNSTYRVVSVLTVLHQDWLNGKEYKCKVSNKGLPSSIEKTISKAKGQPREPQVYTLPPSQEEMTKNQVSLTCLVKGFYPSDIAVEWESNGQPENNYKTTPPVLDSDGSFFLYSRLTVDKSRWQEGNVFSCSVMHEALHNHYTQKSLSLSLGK
notes: IgG4 with the Ser228Pro mutation; also called antibody Q; anti-C5aR ab
EC50 (human C5a receptor [1]): 0.3 µg/mL | binding result [2]: binds | Kd (human C5a receptor [3]): 0.175 µg/mL | Kd (human C5a receptor [4]): 0.175 µg/mL | EC50 (human C5a receptor [5]): 1.1 µg/mL | Ab conc. tested but not effective at blocking Ca2+-flux (human neutrophils, 1 nM C5a) (human C5a receptor [6]): 0.5 µg/mL
